Measured values from article PMC3499403 (PLoS Neglected Tropical Diseases, 2012).

Legend:
[1] = molecular target: T1, soluble form of the Variant-specific Surface Glycoprotein (sVSG) of T. b. brucei AnTat1.1 (Trypanosoma brucei brucei AnTat1.1, UniProt P06015); assay: SPR; BIAcore T100; 1000-1500 RU soluble AnTat1.1 VSG amine-coupled on a CM5 chip; Nanobody 500 to 7.8 nM at 30 µl/min in HBS (10 mM Hepes pH 7.5, 150 mM NaCl, 3.5 mM EDTA, 0.005% Tween-20); 1:1 binding model with local Rmax; conditions: both partners purified
T1 construct: Variant-specific Surface Glycoprotein (VSG) of Trypanosoma brucei brucei AnTat1.1, soluble form (sVSG); Glycoprotein; amine-coupled to a CM5 chip for SPR; also called AnTat1.1 sVSG; soluble AnTat1.1 VSG

[2] = molecular target: T2, Variant-specific Surface Glycoprotein (VSG) on live bloodstream form T. b. brucei AnTat1.1 (Trypanosoma brucei brucei AnTat1.1 (endogenous in the parasites)) (UniProt P06015)
T2 sequence: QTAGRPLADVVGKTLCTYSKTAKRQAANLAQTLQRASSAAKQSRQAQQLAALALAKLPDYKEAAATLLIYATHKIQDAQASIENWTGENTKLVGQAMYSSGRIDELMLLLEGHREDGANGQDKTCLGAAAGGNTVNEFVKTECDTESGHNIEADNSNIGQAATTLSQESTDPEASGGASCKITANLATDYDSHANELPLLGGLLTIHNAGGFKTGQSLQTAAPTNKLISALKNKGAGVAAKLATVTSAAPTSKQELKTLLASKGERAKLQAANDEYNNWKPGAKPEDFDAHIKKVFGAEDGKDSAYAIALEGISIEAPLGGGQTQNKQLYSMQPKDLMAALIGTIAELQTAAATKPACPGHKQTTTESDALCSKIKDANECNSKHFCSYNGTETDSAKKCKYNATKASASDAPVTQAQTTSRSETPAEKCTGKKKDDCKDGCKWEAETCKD

[3] = molecular target: T3, Variant-specific Surface Glycoprotein (VSG) on live bloodstream form T. b. brucei AnTat1.1 (Trypanosoma brucei brucei AnTat1.1, UniProt P06015); assay: cell-based or functional assay
[4] = molecular target: T1, soluble form of the Variant-specific …; assay: SPR; BIAcore T100; 1000-1500 RU soluble AnTat1.1 VSG amine-coupled on a CM5 chip; Nanobody 500 to 7.8 nM at 30 µl/min in HBS (10 mM Hepes pH 7.5, 150 mM NaCl, 3.5 mM EDTA, 0.005% Tween-20); 1:1 binding model with local Rmax; conditions: both partners purified; remark: listed apart in the source
[5] = molecular target: T3, Variant-specific Surface Glycoprotein …; assay: cell-based or functional assay; remark: listed apart in the source
[6] = molecular target: T3, Variant-specific Surface Glycoprotein …; assay: cell-based or functional assay; remark: listed apart in the source
[7] = molecular target: T1, soluble form of the Variant-specific …; assay: SPR; BIAcore T100; 1000-1500 RU soluble AnTat1.1 VSG amine-coupled on a CM5 chip; Nanobody 500 to 7.8 nM at 30 µl/min in HBS (10 mM Hepes pH 7.5, 150 mM NaCl, 3.5 mM EDTA, 0.005% Tween-20); 1:1 binding model with local Rmax; conditions: both partners purified; remark: listed apart in the source

B1: Nb_An33hum1 (VHH)
VHH: DVQLVESGGGSVQAGGSLRLSCAVSGSTYSPCTTGWVRQAPGKEREWVSSISSPGTIYYQDSVKGRFTISRDNAKNTVYLQMNSLQREDTGMYYCQIQCGVRSIREYWGQGTQVTVSS
Kd [1]: 1100 nM
koff [1]: 0.264 s⁻¹
kon [1]: 243000 M⁻¹ s⁻¹
Trypanotoxic activity (%), 18 h incubation at 37°C with 20 µg/ml Nb [2]: 0%

B2: Nb_An33hum2 (VHH)
VHH: DVQLVESGGGSVQAGGSLRLSCAVSGSTYSPCTTGWVRQAPGKGLEWVSSISSPGTIYYQDSVKGRFTISRDNAKNTVYLQMNSLQREDTGMYYCQIQCGVRSIREYWGQGTQVTVSS
Kd [1]: 540 nM
koff [1]: 0.15 s⁻¹
kon [1]: 291000 M⁻¹ s⁻¹
Trypanotoxic activity (%), 18 h incubation at 37°C with 20 µg/ml Nb [2]: 0%

B3: Nb_An33hum3 (VHH)
VHH: DVQLVESGGGSVQAGGSLRLSCAVSGSTYSPCTTGWYRQAPGKGLEWVSSISSPGTIYYQDSVKGRFTISRDNAKNTVYLQMNSLQREDTGMYYCQIQCGVRSIREYWGQGTQVTVSS
Kd [1]: 23.5 nM
koff [1]: 0.016 s⁻¹
kon [1]: 702000 M⁻¹ s⁻¹
Trypanotoxic activity (%), 18 h incubation at 37°C with 20 µg/ml Nb [2]: 57%

B4: Nanobody 33 (Nb_An33), wildtype (VHH)
VHH: DVQLVESGGGSVQAGGSLRLSCAVSGSTYSPCTTGWYRQAPGKEREWVSSISSPGTIYYQDSVKGRFTISRDNAKNTVYLQMNSLQREDTGMYYCQIQCGVRSIREYWGQGTQVTVSS
Kd [1]: 28 nM
koff [1]: 0.021 s⁻¹
kon [1]: 741000 M⁻¹ s⁻¹
Trypanotoxic activity (%), 18 h incubation at 37°C with 20 µg/ml Nb [2]: 73%

B5: Nb_An-R3.7 (VHH)
VHH: QVQLQESGGGLVQPGGSLRLSCEASGFILGYYTIGWIRQAPGKEREGVICITSAGGRTNYADSVKGRFTISRDNAKNTVYLQMNSLKPEDTAVYYCAADLINLCDSSWLRDGMNYWGKGTQVTVSS
notes: From the alpaca sVSG-immune library, cloned in pMES; source: E. coli WK6, purified (Ni-NTA, Superdex 75 gel filtration)
trypanotoxic activity (% relative to a non-trypanosome specific Nb), 10 µg/ml Nb, 18 h, 37°C, HMI-9/10% FBS [3]: > 80%
Kd [4]: 5 nM

B6: Nb_An33mut1 (VHH)
VHH: DVQLVESGGGSVQAGGSLRLSCAVSGRALSPCTTGWYRQAPGKEREWVSSISSPGTIYYQDSVKGRFTISRDNAKNTVYLQMNSLQREDTGMYYCQIQCGVRSIREYWGQGTQVTVSS
notes: Conjugated with Alexa Fluor 488 for flow cytometry; source: E. coli WK6, purified (Ni-NTA, Superdex 75 gel filtration)
Kd [1]: 89 nM
koff [1]: 0.042 s⁻¹
kon [1]: 467000 M⁻¹ s⁻¹
Trypanotoxic activity (%), 18 h incubation at 37°C with 20 µg/ml Nb [5]: 33%

B7: Nb_An33mut2 (VHH)
VHH: DVQLVESGGGSVQAGGSLRLSCAVSGSTYSPCTTGWYRQAPGKEREWVSSISSPGTIYYQDSVKGRFTISRDNAKNTVYLQMNSLQREDTGMYYCQIQCGFVNINEYWGQGTQVTVSS
notes: as for B6
Kd [1]: 723 nM
koff [1]: 0.227 s⁻¹
kon [1]: 314000 M⁻¹ s⁻¹
Trypanotoxic activity (%), 18 h incubation at 37°C with 20 µg/ml Nb [5]: 4%

B8: Nb_An33mut3 (VHH)
VHH: DVQLVESGGGSVQAGGSLRLSCAVSGSTYSPCTTGWYRQAPGKEREWVSSISSPGTIYYQDSVKGRFTISRDNAKNTVYLQMNSLQREDTGMYYCQIQCGNDCILEYWGQGTQVTVSS
notes: as for B6
Kd [1]: 197 nM
koff [1]: 0.066 s⁻¹
kon [1]: 336000 M⁻¹ s⁻¹
Trypanotoxic activity (%), 18 h incubation at 37°C with 20 µg/ml Nb [5]: 24%

B9: Nb_An-R3.68 (VHH)
VHH: QVQLQESGGGLVQPGGSLRLSCAASGGTLSYYAVGWFRQAPGKEREAVSSIRSGGGITVYADSVKGRFTISRDNKKNTVYLQMNGLKPEDTAVYYCAAGLWRWPDHNMLVSGNYDYWGQGTQVTVSS
notes: as for B5
trypanotoxic activity (% relative to a non-trypanosome specific Nb), 10 and 20 µg/ml Nb, 18 h, 37°C; value at 20 µg/ml [6]: > 95%
Kd [7]: 9 nM
Kd [4]: 12 nM

B10: Nb_An-R3.92 (VHH)
VHH: QVQLQESGGGLVQAGGSLRLSCEASGFILGYYTIGWFRQAPGKEREGVLCISSAGGRTNYADSVKGRFTISRDNAKNTVYLQMNSLKPEDTAVYYCAADLINLCDSSWWRDGMNYWGKGTQVTVSS
notes: as for B5
trypanotoxic activity (% relative to a non-trypanosome specific Nb), 10 µg/ml Nb, 18 h, 37°C, HMI-9/10% FBS [3]: > 80%
Kd [4]: 11 nM

B11: Nb_An-R4.11 (VHH)
VHH: QVQLQESGGGLVQPGGSLRLSCEGSGFILGYYTIGWFRQAPGKEREGVSCMNSSGRTKYADSVKGRFTISRDNAKNTVYLQMNSLKPEDRAVYFCAADLINLCDSSWLRDGMNYWGKGTQVTVSS
notes: as for B5
trypanotoxic activity (% relative to a non-trypanosome specific Nb), 10 µg/ml Nb, 18 h, 37°C, HMI-9/10% FBS [3]: > 80%
Kd [4]: 35 nM

B12: Nb_An-R4.29 (VHH)
VHH: QVQLQESGGGLVQPGGSLRLSCEASGFILGYYTIGWFRQAPGKEREGVSCINSSPGTTNYADSVKGRFTISRDNAKNTVYLQMNSLKPEDTAVYYCAADLINLCDSTWVRDGMNFWGKGTQVTVSS
notes: as for B5
trypanotoxic activity (% relative to a non-trypanosome specific Nb), 10 µg/ml Nb, 18 h, 37°C, HMI-9/10% FBS [3]: > 80%
Kd [4]: 5 nM

B13: Nb_An-R4.55 (VHH)
VHH: QVQLQESGGGLVQPGGSLRLSCEASGFILGYYTIGWIRQAPGKEREGVICITSAGGRTNYADSVKGRFTISRDNAKNTVYLQMNSLKPEDTAVYYCAADLINLCDSSWLQDGMNYWGKGTQVTVSS
notes: as for B5
trypanotoxic activity (% relative to a non-trypanosome specific Nb), 10 µg/ml Nb, 18 h, 37°C, HMI-9/10% FBS [3]: > 80%
Kd [4]: 5 nM

B14: Nb_An-R4.71 (VHH)
VHH: QVQLQESGGGLVQPGGSLRLSCAASGFILNYATIAWFRQAPGKEREGVSCISSAFNTNYADSVKGRFAISRDNAKNTVYLQMNSLKPEDTAVYYCAATFGGTSYCSLRPDSSVPYDTWGQGTQVTVSS
notes: as for B5
trypanotoxic activity (% relative to a non-trypanosome specific Nb), 10 µg/ml Nb, 18 h, 37°C, HMI-9/10% FBS [3]: > 80%
Kd [4]: 7 nM

B15: Nb_An-R4.80 (VHH)
VHH: QVQLQESGGGLVQPGGSLRLSCEASGFILGYYTIGWIRQAPGKEREGVICITSAGGRTNYADSVKGRFTISRDNAKNTVYLQMNSLKPEDTAVYYCAADLTNLCDSSWLRDGMNYWGKGTQVTVSS
notes: as for B5
trypanotoxic activity (% relative to a non-trypanosome specific Nb), 10 µg/ml Nb, 18 h, 37°C, HMI-9/10% FBS [3]: > 80%
Kd [4]: 6 nM
